B1: Phospholipid-transporting ATPase DNF1 (Saccharomyces cerevisiae), P32660 (parent)
chain: MSGTFHGDGHAPMSPFEDTFQFEDNSSNEDTHIAPTHFDDGATSNKYSRPQVSFNDETPKNKREDAEEFTFNDDTEYDNHSFQPTPKLNNGSGTFDDVELDNDSGEPHTNYDGMKRFRMGTKRNKKGNPIMGRSKTLKWARKNIPNPFEDFTKDDIDPGAINRAQELRTVYYNMPLPKDMIDEEGNPIMQYPRNKIRTTKYTPLTFLPKNILFQFHNFANVYFLVLIILGAFQIFGVTNPGLSAVPLVVIVIITAIKDAIEDSRRTVLDLEVNNTKTHILEGVENENVSTDNISLWRRFKKANSRLLFKFIQYCKEHLTEEGKKKRMQRKRHELRVQKTVGTSGPRSSLDSIDSYRVSADYGRPSLDYDNLEQGAGEANIVDRSLPPRTDCKFAKNYWKGVKVGDIVRIHNNDEIPADIILLSTSDTDGACYVETKNLDGETNLKVRQSLKCTNTIRTSKDIARTKFWIESEGPHSNLYTYQGNMKWRNLADGEIRNEPITINNVLLRGCTLRNTKWAMGVVMFTGGDTKIMLNSGITPTKKSRISRELNFSVVINFVLLFILCFVSGIANGVYYDKKGRSRFSYEFGTIAGSAATNGFVSFWVAVILYQSLVPISLYISVEIIKTAQAAFIYGDVLLYNAKLDYPCTPKSWNISDDLGQVEYIFSDKTGTLTQNVMEFKKCTINGVSYGRAYTEALAGLRKRQGIDVETEGRREKAEIAKDRDTMIDELRALSGNSQFYPEEVTFVSKEFVRDLKGASGEVQQRCCEHFMLALALCHSVLVEANPDNPKKLDLKAQSPDEAALVATARDVGFSFVGKTKKGLIIEMQGIQKEFEILNILEFNSSRKRMSCIVKIPGLNPGDEPRALLICKGADSIIYSRLSRQSGSNSEAILEKTALHLEQYATEGLRTLCIAQRELSWSEYEKWNEKYDIAAASLANREDELEVVADSIERELILLGGTAIEDRLQDGVPDCIELLAEAGIKLWVLTGDKVETAINIGFSCNLLNNEMELLVIKTTGDDVKEFGSEPSEIVDALLSKYLKEYFNLTGSEEEIFEAKKDHEFPKGNYAIVIDGDALKLALYGEDIRRKFLLLCKNCRAVLCCRVSPSQKAAVVKLVKDSLDVMTLAIGDGSNDVAMIQSADVGIGIAGEEGRQAVMCSDYAIGQFRYLARLVLVHGRWSYKRLAEMIPEFFYKNMIFALALFWYGIYNDFDGSYLYEYTYMMFYNLAFTSLPVIFLGILDQDVNDTISLVVPQLYRVGILRKEWNQRKFLWYMLDGLYQSIICFFFPYLVYHKNMIVTSNGLGLDHRYFVGVYVTTIAVISCNTYVLLHQYRWDWFSGLFIALSCLVVFAWTGIWSSAIASREFFKAAARIYGAPSFWAVFFVAVLFCLLPRFTYDSFQKFFYPTDVEIVREMWQHGHFDHYPPGYDPTDPNRPKVTKAGQHGEKIIEGIALSDNLGGSNYSRDSVVTEEIPMTFMHGEDGSPSGYQKQETWMTSPKETQDLLQSPQFQQAQTFGRGPSTNVRSSLDRTREQMIATNQLDNRYSVERARTSLDLPGVTNAASLIGTQQNN
partner: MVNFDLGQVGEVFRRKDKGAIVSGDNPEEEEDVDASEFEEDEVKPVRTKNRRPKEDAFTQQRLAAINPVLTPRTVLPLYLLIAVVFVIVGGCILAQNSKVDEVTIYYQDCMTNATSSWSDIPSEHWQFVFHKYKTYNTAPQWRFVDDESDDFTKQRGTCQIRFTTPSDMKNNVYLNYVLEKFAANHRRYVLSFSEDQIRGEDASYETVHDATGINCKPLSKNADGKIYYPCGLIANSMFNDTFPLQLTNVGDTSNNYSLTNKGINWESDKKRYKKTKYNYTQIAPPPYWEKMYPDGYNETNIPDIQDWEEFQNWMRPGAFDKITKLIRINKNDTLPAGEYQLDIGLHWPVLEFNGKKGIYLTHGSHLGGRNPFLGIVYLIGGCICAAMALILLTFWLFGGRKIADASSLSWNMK
B2: Phospholipid-transporting ATPase DRS2 (Saccharomyces cerevisiae), P39524 (parent)
chain: MNDDRETPPKRKPGEDDTLFDIDFLDDTTSHSGSRSKVTNSHANANYIPPSHVLPEETIDLDADDDNIENDVHENLFMSNNHDDQTSWNANRFDSDAYQPQSLRAVKPPGLFARFGNGLKNAFTFKRKKGPESFEMNHYNAVTNNELDDNYLDSRNKFNIKILFNRYILRKNVGDAEGNGEPRVIHINDSLANSSFGYSDNHISTTKYNFATFLPKFLFQEFSKYANLFFLCTSAIQQVPHVSPTNRYTTIGTLLVVLIVSAMKECIEDIKRANSDKELNNSTAEIFSEAHDDFVEKRWIDIRVGDIIRVKSEEPIPADTIILSSSEPEGLCYIETANLDGETNLKIKQSRVETAKFIDVKTLKNMNGKVVSEQPNSSLYTYEGTMTLNDRQIPLSPDQMILRGATLRNTAWIFGLVIFTGHETKLLRNATATPIKRTAVEKIINRQIIALFTVLIVLILISSIGNVIMSTADAKHLSYLYLEGTNKAGLFFKDFLTFWILFSNLVPISLFVTVELIKYYQAFMIGSDLDLYYEKTDTPTVVRTSSLVEELGQIEYIFSDKTGTLTRNIMEFKSCSIAGHCYIDKIPEDKTATVEDGIEVGYRKFDDLKKKLNDPSDEDSPIINDFLTLLATCHTVIPEFQSDGSIKYQAASPDEGALVQGGADLGYKFIIRKPNSVTVLLEETGEEKEYQLLNICEFNSTRKRMSAIFRFPDGSIKLFCKGADTVILERLDDEANQYVEATMRHLEDYASEGLRTLCLAMRDISEGEYEEWNSIYNEAATTLDNRAEKLDEAANLIEKNLILIGATAIEDKLQDGVPETIHTLQEAGIKIWVLTGDRQETAINIGMSCRLLSEDMNLLIINEETRDDTERNLLEKINALNEHQLSTHDMNTLALVIDGKSLGFALEPELEDYLLTVAKLCKAVICCRVSPLQKALVVKMVKRKSSSLLLAIGDGANDVSMIQAAHVGVGISGMEGMQAARSADIAVGQFKFLKKLLLVHGSWSYQRISVAILYSFYKNTALYMTQFWYVFANAFSGQSIMESWTMSFYNLFFTVWPPFVIGVFDQFVSSRLLERYPQLYKLGQKGQFFSVYIFWGWIINGFFHSAIVFIGTILIYRYGFALNMHGELADHWSWGVTVYTTSVIIVLGKAALVTNQWTKFTLIAIPGSLLFWLIFFPIYASIFPHANISREYYGVVKHTYGSGVFWLTLIVLPIFALVRDFLWKYYKRMYEPETYHVIQEMQKYNISDSRPHVQQFQNAIRKVRQVQRMKKQRGFAFSQAEEGGQEKIVRMYDTTQKRGKYGELQDASANPFNDNNGLGSNDFESAEPFIENPFADGNQNSNRFSSSRDDISFDI
partner: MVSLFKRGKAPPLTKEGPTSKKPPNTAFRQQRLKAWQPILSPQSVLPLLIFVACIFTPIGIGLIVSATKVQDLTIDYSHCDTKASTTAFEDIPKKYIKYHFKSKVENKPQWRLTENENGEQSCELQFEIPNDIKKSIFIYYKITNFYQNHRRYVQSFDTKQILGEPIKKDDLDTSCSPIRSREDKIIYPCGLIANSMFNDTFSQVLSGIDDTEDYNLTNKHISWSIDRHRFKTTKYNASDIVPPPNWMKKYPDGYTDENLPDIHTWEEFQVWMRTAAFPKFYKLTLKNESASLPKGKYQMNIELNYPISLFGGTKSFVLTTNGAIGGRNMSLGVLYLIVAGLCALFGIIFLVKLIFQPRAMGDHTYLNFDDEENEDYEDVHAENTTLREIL

Variants of: B1
Settings: with lem3_yeast LEM3, P42838

effect of a mutation on the interaction	Variant
disrupting interaction strength	D667N
disrupting interaction strength	D667E

Variants of: B2
Settings: with cdc50_yeast CDC50, P25656

effect of a mutation on the interaction	Variant
decreasing interaction strength	D560N

Variants of: B2
Settings: with cdc50_yeast CDC50, P25656
Remark: another data set of the same source

effect of a mutation on the interaction	Variant
decreasing interaction strength	D560E
decreasing interaction strength	G341L
with no effect	E342Q

— IntAct's records for PubMed 19411703
